The values below come from patent US20150056222A1.

The target in this assay is mouse PRLR on HEK293 cells (mouse) (UniProt Q08501). Nature of the assay: FACS, HEK293/mPRLR cells. Background: Flow cytometry measures light scatter and fluorescence of single cells or particles in a stream.
mouse PRLR on HEK293 cells (mouse), sequence (Q08501 20-608): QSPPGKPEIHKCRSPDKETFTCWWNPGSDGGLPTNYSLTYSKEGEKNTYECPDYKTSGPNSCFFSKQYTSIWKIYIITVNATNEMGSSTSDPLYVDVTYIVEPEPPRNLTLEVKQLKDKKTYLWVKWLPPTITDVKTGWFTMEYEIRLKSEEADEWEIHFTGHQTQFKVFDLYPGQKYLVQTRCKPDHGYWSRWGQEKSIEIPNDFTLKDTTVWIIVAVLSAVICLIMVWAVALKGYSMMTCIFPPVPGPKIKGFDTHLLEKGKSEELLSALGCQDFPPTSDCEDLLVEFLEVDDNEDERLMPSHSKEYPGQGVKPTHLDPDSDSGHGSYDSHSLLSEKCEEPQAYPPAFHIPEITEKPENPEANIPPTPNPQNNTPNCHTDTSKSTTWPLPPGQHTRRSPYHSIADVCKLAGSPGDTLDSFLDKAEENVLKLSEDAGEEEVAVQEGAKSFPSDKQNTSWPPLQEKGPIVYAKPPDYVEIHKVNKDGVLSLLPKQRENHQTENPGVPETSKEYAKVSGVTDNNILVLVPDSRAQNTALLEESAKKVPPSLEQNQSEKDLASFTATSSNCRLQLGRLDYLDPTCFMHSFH

In turn, Isotype Ctrl I (antibody) gave an FACS Cell Binding (Fold Above Background) (fold above background) of 1.
